What all share (assay): fluorescence polarisation; fluorescein-labelled histone peptide 3 nM, KDM4 DTD titrated 0.1-100 μM; 30 mM HEPES, 150 mM NaCl pH 7.4, 0.01% Triton X-100
(In general: In fluorescence polarisation assays a small probe gives low polarisation when free and higher when bound to something large.)

Test [1] deals with H3 (17-32) K23me3 peptide, fluorescein-labelled (UniProt P68431).
In test [2] the target is H3K23me1 peptide (monomethylated H3K23), fluorescein-labelled.
Test [3] deals with H3K23me2 peptide (dimethylated H3K23), fluorescein-labelled.
In test [4] the target is H3K23me3R26A peptide, fluorescein-labelled.
The target in test [5] is H3K23me3R26me2a peptide, fluorescein-labelled.
Test [6] deals with H3T22phK23me3 peptide, fluorescein-labelled.

As a reminder, the Kd is the free concentration of one partner at which half of the binding sites on the other are occupied at equilibrium, for simple one-to-one binding. Higher therefore signals weaker binding.

On to “KDM4A double tudor domain (KDM4A-DTD), HaloTag-tagged, wild type (from UniProt O75164 895-1011) (domain or fragment)”, for which the dissociation constant Kd in test [1] is 2.2 µM; in test [2] it was 98.5 µM; in test [3] it was 9.06 µM; in test [4], 32.3 µM; in test [5], 8.7 µM; in test [6] it was 83.7 µM.
“KDM4B double tudor domain (KDM4B-DTD), HaloTag-tagged, wild type (from UniProt O94953 917-1031) (domain or fragment)” registered a Kd in test [1] of 10.3 µM.

The values are drawn from paper PMC5114558, “Reader domain specificity and lysine demethylase-4 family function” (Nature Communications, 2016).
